According to paper PMC7242879, “Exploring the Molecular Basis for Substrate Affinity and Structural Stability in Bacterial GH39 β-Xylosidases” (Frontiers in Bioengineering and Biotechnology, 2020):

Tested on: O=[N+]([O-])c1ccc(O[C@@H]2OC[C@@H](O)[C@H](O)[C@H]2O)cc1
Assay: purified protein
Settings: McIlvaine buffer 50 mM pH 5.5, 40 °C, 0.1–25 mM substrate, 13.6 μM enzyme, 15 min

Substance: XacXynB (Xanthomonas citri subsp. citri 306)
- Km: 1930 ± 250 µM
- kcat: 4.43 ± 0.142 s⁻¹
- kcat/Km: 2300 M⁻¹ s⁻¹
